Patent US20160060340A1 (Kyowa Kirin, published 2016)
Numbering of substitutions follows the chain as printed. Names and notes keep the numbering of the source. Values belong to the binder of their own block, whether it stands above or below them.

How the values were obtained:
FOLR1-mycHis [1] = molecular target: T1, FOLR1-mycHis (human, UniProt P15328 25-233); experiment: SPR (Biacore T100), antibody captured with Human Antibody Capture Kit, FOLR1-mycHis as analyte, 1:1 binding model
T1 construct: Secreted from CHO/DG44 cells, purified on Ni-NTA; Residues 1-233 include the native signal peptide; also called non-reducing FOLR1-mycHis; recombinant protein having myc and His tag at the C-terminus of FOLR1 (1-233 amino acids); not shown: myc and His tag at the C-terminus
T1 sequence (P15328 25-233): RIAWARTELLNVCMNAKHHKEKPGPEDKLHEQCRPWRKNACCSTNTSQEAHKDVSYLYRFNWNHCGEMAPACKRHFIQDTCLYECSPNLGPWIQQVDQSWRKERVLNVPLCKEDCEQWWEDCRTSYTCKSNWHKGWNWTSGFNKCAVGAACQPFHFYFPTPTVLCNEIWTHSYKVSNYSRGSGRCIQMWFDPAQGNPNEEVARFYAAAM
Description: The affinity was analyzed from association constant (Ka) and dissociation constant (Kd) by Single-cycle kinetics. Kinetic constants (ka, kd, KD) were calculated by 1:1 binding model using a Biacore T-100 Evaluation software (GE Healthcare).
(§1) The affinities of ChRA15-7Acc antibody and MORAb-003 antibody for FOLR1 were measured by a surface plasmon resonance method. The measurement was carried out in the same manner as in Example 16, except that a Human Antibody Capture Kit (GE Healthcare) was immobilized onto the CM5 chip by amine coupling and FOLR1-mycHis prepared by five-step dilution (12.3, 37, 111, 333, 1000 ng/mL) was applied as an analyte.

FOLR1-mycHis [2] = molecular target: T1, FOLR1-mycHis; experiment: SPR (Biacore), antibody captured by Human Antibody Capture Kit on a CM5 chip, FOLR1-mycHis as analyte (12.3-1000 ng/mL, as in Example 29); affinity relative to ChRA15-7Acc = 100
Description: as §1
(§2) Affinities of HV7LV3-CDRH3-Cys101 modified antibodies for FOLR1 were measured by the surface plasmon resonance method in the same manner as in Example 29.

[3] = molecular target: T2, cynomolgus monkey FOLR1-Fc (cynomolgus monkey; human); experiment: ELISA, antigen coated at 2 ug/mL, antibody 1.4-1000 ng/mL, goat anti-human kappa-HRP, ABTS, absorbance at 415 nm [d]
T2 construct: Expressed in CHO/Ms704 cells; also called CyFOLR1-Fc; not shown: Human IgG1 Fc (Hinge region and CH2-CH3 region) from pKANTEX93, added to the C-terminus
T2 sequence (chain, as listed by the source): as the sequence (P15328 25-233) above, with I2T, W4R, R37K, A146P, H171Y counted along it
Description: (§3) First, each 50 μL/well of FOLR1-Fc, FOLR2-Fc, FOLR3-Fc, and cynomolgus monkey FOLR1-Fc which were prepared at a concentration of 2 μg/mL using PBS was added in a 96-well plate for ELISA and incubated at 4° C. overnight. It was washed with PBS, and then 200 μL/well of 1% BSA/PBS wad added at room temperature for 1 hour for blocking. It was washed with PBS again, and each 50 μL/well of HuRA15-7CTDF antibody, ChRA15-7DF antibody, MORAb-003DF antibody, and defucosylated anti-DNP human IgG1 (DNPDF) antibody as a negative control which were prepared by seven-step dilution (1.4, 4.1, 12, 37, 111, 333, 1000 ng/mL) in 1% BSA/PBS was added, and allowed to react at room temperature for 1 hour.
(§4) Each well was washed with 0.05% tween20/PBS, and then 50 μL/well of Goat anti-Human kappa-HRP (Southern Biotech) which was diluted 2000-fold using 1% BSA/PBS was added and allowed to react at room temperature for 1 hour. Each well was washed with PBS, and then 50 μL/well of ABTS substrate solution was added, and allowed to react at room temperature. After sufficient color development was confirmed, 5% SDS solution was added to terminate the reaction, and absorbance at 415 nm was measured.

FOLR1-mycHis [4] = molecular target: T1, FOLR1-mycHis; experiment: SPR as in Example 29, antibody captured, FOLR1-mycHis as analyte
Description: as §1, §2

FOLR1-mycHis [5] = molecular target: T1, FOLR1-mycHis; experiment: surface plasmon resonance as in Example 29
Description: as §1, §2

[6] = molecular target: T2, cynomolgus monkey FOLR1-Fc; experiment: ELISA, antigen coated at 2 ug/mL, antibody 1.4-1000 ng/mL, goat anti-human kappa-HRP, ABTS, absorbance at 415 nm [c]
Description: as §3, §4

Kd (FOLR1-mycHis [1]): 57 nM | koff (FOLR1-mycHis [1]): 0.0259 s⁻¹
B1: MORAb-003 antibody (antibody, V domains shown)
VH: EVQLVESGGGVVQPGRSLRLSCSASGFTFSGYGLSWVRQAPGKGLEWVAMISSGGSYTYYADSVKGRFAISRDNAKNTLFLQMDSLRPEDTGVYFCARHGDDPAWFAYWGQGTPVTVSS
VL: DIQLTQSPSSLSASVGDRVTITCSVSSSISSNNLHWYQQKPGKAPKPWIYGTSNLASGVPSRFSGSGSGTDYTFTISSLQPEDIATYYCQQWSSYPYMYTFGQGTKVEIKR

binding result (FOLR1-mycHis [2]): binds
B2: C101A (antibody, V domains shown)
VH: EVQLVESGGGLVQPGGSLRLSCAASGFTFTDFYMNWVRQPPGKAPEWLGFIRNKANGYTTEFNPSVKGRFTISRDNSKNSLYLQMNSLKTEDTATYYCARALYGYAYYYVMDAWGQGTLVTVSS
VL: DIQMTQSPSSLSASLGDRVTITCRTSEDIFRNLAWYQQKPGKAPKLLIYDTNRLADGVPSRFSGSGSGTDYTLTISSLQPEDFATYFCQQYDNYPLTFGQGTKLEIK
notes: also called HV7LV3-CDRH3-Cys101 modified antibody C101A; antibody in which Cys101 was modified with Ala

binding result [3]: binds
B3: HuRA15-7CTDF antibody (antibody, human IgG1, V domains shown)
VH: B2 VH with A101T
VL: B2 VL
notes: defucosylated, made in CHO/Ms704 cells; also called defucosylated HuRA15-7CT

affinity as percent of the affinity of ChRA15-7Acc antibody (FOLR1-mycHis [4]): 59% | affinity as percent of the affinity of ChRA15-7Acc antibody (FOLR1-mycHis [5]): ≥ 50 % of the affinity of ChRA15-7Acc antibody
B4: HV7LV3-CDRH3-Cys101 modified antibody C101M (antibody, human IgG1, V domains shown)
VH: B2 VH with A101M
VL: B2 VL
notes: Human IgG1 kappa constant regions of pKANTEX93; transiently made in FUT8 double-knockout CHO-K1 cells; also called antibody in which Cys101 was modified with Met

affinity as percent of the affinity of ChRA15-7Acc antibody (FOLR1-mycHis [4]): 73% | affinity as percent of the affinity of ChRA15-7Acc antibody (FOLR1-mycHis [5]): ≥ 50 % of the affinity of ChRA15-7Acc antibody
B5: HV7LV3-CDRH3-Cys101 modified antibody C101I (antibody, human IgG1, V domains shown)
VH: B2 VH with A101I
VL: B2 VL
notes: Human IgG1 kappa constant regions of pKANTEX93; transiently made in FUT8 double-knockout CHO-K1 cells; also called antibody in which Cys101 was modified with Ile

affinity as percent of the affinity of ChRA15-7Acc antibody (FOLR1-mycHis [4]): 64% | affinity as percent of the affinity of ChRA15-7Acc antibody (FOLR1-mycHis [5]): ≥ 50 % of the affinity of ChRA15-7Acc antibody
B6: HV7LV3-CDRH3-Cys101 modified antibody C101Q (antibody, human IgG1, V domains shown)
VH: B2 VH with A101Q
VL: B2 VL
notes: Human IgG1 kappa constant regions of pKANTEX93; transiently made in FUT8 double-knockout CHO-K1 cells; also called antibody in which Cys101 was modified with Gln

affinity as percent of the affinity of ChRA15-7Acc (FOLR1-mycHis [4]): ~70%
B7: modified humanized RA15-7 antibody HV10LV4 (antibody, human IgG1, V domains shown)
VH: B2 VH with L18M, V37I, P41A, A101C
VL: B2 VL with K45Q
notes: Human IgG1 kappa constant regions of pKANTEX93; transiently made in FUT8 double-knockout CHO-K1 cells

affinity as percent of the affinity of ChRA15-7Acc (FOLR1-mycHis [4]): ~70%
B8: modified humanized RA15-7 antibody HV10LV2 (antibody, human IgG1, V domains shown)
VH: B2 VH with L18M, V37I, P41A, A101C
VL: B2 VL with L15V, K45Q, F87Y
notes: as for B7

affinity as percent of the affinity of ChRA15-7Acc antibody (FOLR1-mycHis [4]): 55% | affinity as percent of the affinity of ChRA15-7Acc antibody (FOLR1-mycHis [5]): ≥ 50 % of the affinity of ChRA15-7Acc antibody
B9: HV7LV3-CDRH3-Cys101 modified antibody C101V (antibody, human IgG1, V domains shown)
VH: B2 VH with A101V
VL: B2 VL
notes: Human IgG1 kappa constant regions of pKANTEX93; transiently made in FUT8 double-knockout CHO-K1 cells; also called antibody in which Cys101 was modified with Val

affinity as percent of the affinity of ChRA15-7Acc antibody (FOLR1-mycHis [4]): 80% | affinity as percent of the affinity of ChRA15-7Acc antibody (FOLR1-mycHis [5]): ≥ 50 % of the affinity of ChRA15-7Acc antibody
B10: HV7LV3-CDRH3-Cys101 modified antibody C101F (antibody, human IgG1, V domains shown)
VH: B2 VH with A101F
VL: B2 VL
notes: Human IgG1 kappa constant regions of pKANTEX93; transiently made in FUT8 double-knockout CHO-K1 cells; also called antibody in which Cys101 was modified with Phe

affinity as percent of the affinity of ChRA15-7Acc (FOLR1-mycHis [4]): ~70%
B11: modified humanized RA15-7 antibody HV10LV3 (antibody, human IgG1, V domains shown)
VH: B2 VH with L18M, V37I, P41A, A101C
VL: B2 VL
notes: as for B7

affinity as percent of the affinity of ChRA15-7Acc (FOLR1-mycHis [4]): ~70%
B12: modified humanized RA15-7 antibody HV10LV6 (antibody, human IgG1, V domains shown)
VH: B2 VH with L18M, V37I, P41A, A101C
VL: B2 VL with A43S, K45Q, T85G
notes: as for B7

binding result (FOLR1-mycHis [2]): no binding
B13: C101P (antibody, V domains shown)
VH: B2 VH with A101P
VL: B2 VL
notes: also called HV7LV3-CDRH3-Cys101 modified antibody C101P; antibody in which Cys101 was modified with Pro

affinity as percent of the affinity of ChRA15-7Acc antibody (FOLR1-mycHis [4]): 88% | affinity as percent of the affinity of ChRA15-7Acc antibody (FOLR1-mycHis [5]): ≥ 50 % of the affinity of ChRA15-7Acc antibody
B14: HV7LV3-CDRH3-Cys101 modified antibody C101T (HuRA15-7CT) (antibody, human IgG1, V domains shown)
VH: B2 VH with A101T
VL: B2 VL
modifications: Expressed in FUT8-knockout CHO-K1 cells (Fc glycan without core fucose); not carried by the letters.
notes: Human IgG1 kappa constant regions of pKANTEX93; transiently made in FUT8 double-knockout CHO-K1 cells; Same vector as HuRA15-7CTDF; also called antibody in which Cys101 was modified with Thr

binding result (FOLR1-mycHis [2]): binds
B15: C101G (antibody, V domains shown)
VH: B2 VH with A101G
VL: B2 VL
notes: also called HV7LV3-CDRH3-Cys101 modified antibody C101G; antibody in which Cys101 was modified with Gly

binding result [6]: binds
B16: ChRA15-7DF antibody (antibody, human IgG1, V domains shown)
VH: EVKLLESGGGLVQPGGSMRLSCAASGFTFTDFYMNWIRQPAGKAPEWLGFIRNKANGYTTEFNPSVKGRFAISRDNTQNMLYLQMNTLRAEDTATYYCARCLYGYAYYYVMDAWGQGTSVTVSS
VL: DIQMTQSPASLSASLGETVTIECRTSEDIFRNLAWYQQRPGNSPQLLIYDTNRLADGVPSRFSGSGSGTQYSLKINSLQSEDVAGYFCQQYDNYPLTFGSGTKLEIK
notes: sugar chain without fucose, made in CHO/Ms704 cells; also called defucosylated rat/human chimeric RA15-7
